Experimental findings from patent US20240294623A1 (SCHOLAR ROCK, published 2024) are described below.

The target in assay [1] is T1, mLRRC33-proTGFβ1 (murine, UniProt Q8BMT4 20-651). Kind of assay: SPR (Biacore), Fab. (In general: SPR reads the build-up and loss of mass on a sensor chip optically.)
The target in another assay is T2, hLTBP3-proTGFβ1 (human, UniProt Q9NS15 44-1303; P01137 30-390, limits assumed).
T2 construct: LLC as m1; Same id used for the cell-made complex in reporter assays; also called human LTBP3-proTGFβ1 complex; LTBP3-ProTGFb1
Kind of assay: SPR (Biacore), Fab. The protocol:
(§1) Surface plasmon resonance (SPR) was used to measure binding kinetics using a BIACORE® system. […] Experiments were carried out with eight types of LLCs, namely, hLTBP1-proTGFβ1, mLTBP1-proTGFβ1, hLTBP3-proTGFβ1, mLTBP3-proTGFβ1, hGARP-proTGFβ1, mGARP-proTGFβ1, hLRRC33-proTGFβ1 and mLRRC33-proTGFβ1.
(§2) In vitro binding kinetics (on/off rates) were measured in Biacore-based assays and affinities were determined against all four known LLCs using both human and murine counterparts for each. Based on the association rate and dissociation rate, KD was calculated for each. In addition, relative affinities, as compared to the reference antibody as a benchmark, were calculated and expressed as “fold difference” relative to the reference antibody.
(§3) A BIACORE® system was employed to determine the monovalent binding affinity and the kinetic parameters for antigen binding of test antibodies. The binding kinetics were evaluated by surface plasmon resonance using Biacore 8K (GE Healthcare). A Biotin CAP sensor chip was used to capture the biotinylated antigens. […] Multi-cycle kinetics was employed where each analyte concentration was injected in a separate cycle and the sensor chip surface was regenerated after each cycle. All the assays were carried out in freshly prepared 1×HBS-EP+buffer (10 mM HEPES, 150 mM NaCl, 3 mM EDTA, 0.05% Tween20, pH 7.4). Data for all the analyte concentrations for each interaction were fit globally to a 1:1 binding model to obtain the kinetic parameters. The Sensorgram for 0 nM analyte concentration was used as reference.

The target in another assay is T3, hLTBP1-proTGFβ1 (human, UniProt Q14766 347-1721; P01137 30-390, limits assumed).
T3 construct: Large latent complex (LLC): proTGFβ1 dimer disulfide-linked to one presenting molecule; recombinant, purified, biotinylated in BLI/SPR; The same id is used for the complex made by transfected cells in the reporter assays; also called human LTBP1-proTGFβ1 complex; LTBP1-ProTGFb1
Kind of assay: SPR (Biacore), Fab. The protocol:
as §1, §2, §3

Another assay has as its target T4, mLTBP3-proTGFβ1 (mouse).
T4 construct: Murine LLC; also called murine LTBP3-proTGFβ1 complex
Kind of assay: SPR (Biacore), Fab. The protocol: as §1, §2, §3

In a further assay the target is T5, mLTBP1-proTGFβ1 (mouse).
T5 construct: Murine LLC; also called murine LTBP1-proTGFβ1 complex
Kind of assay: SPR (Biacore), Fab. As for the experimental part:
as §1, §2, §3

Another assay deals with T6, hGARP-proTGFβ1 (human, UniProt Q14392 18-627; P01137 30-390, limits assumed).
T6 construct: LLC as m1; Same id used for the cell-surface complex in reporter assays; also called human GARP-proTGFβ1 complex; GARP-ProTGFb1
Kind of assay: SPR (Biacore), Fab. The protocol: as §1, §2, §3

Assay [2] concerns the target T7, mGARP-proTGFβ1 (mouse).
T7 construct: Murine LLC; also called murine GARP-proTGFβ1 complex
Kind of assay: SPR (Biacore), Fab. As for the experimental part: as §1, §2, §3

Assay [3] has as its target T1, mLRRC33-proTGFβ1. Kind of assay: SPR (Biacore), Fab; affinity relative to Ref.
The target of a further assay is T8, hLRRC33-proTGFβ1 (human, UniProt Q86YC3 19-650; P01137 30-390, limits assumed).
T8 construct: LLC as m1; Same id used for the cell-surface complex in reporter assays; also called human LRRC33-proTGFβ1 complex; LRRC33-ProTGFb1
Kind of assay: SPR (Biacore), Fab; affinity relative to Ref.

Assay [4] addresses T7, mGARP-proTGFβ1. Kind of assay: SPR (Biacore), Fab; affinity relative to Ref.

T7 sequence (G3XA59 18-663, chain 1 of 2): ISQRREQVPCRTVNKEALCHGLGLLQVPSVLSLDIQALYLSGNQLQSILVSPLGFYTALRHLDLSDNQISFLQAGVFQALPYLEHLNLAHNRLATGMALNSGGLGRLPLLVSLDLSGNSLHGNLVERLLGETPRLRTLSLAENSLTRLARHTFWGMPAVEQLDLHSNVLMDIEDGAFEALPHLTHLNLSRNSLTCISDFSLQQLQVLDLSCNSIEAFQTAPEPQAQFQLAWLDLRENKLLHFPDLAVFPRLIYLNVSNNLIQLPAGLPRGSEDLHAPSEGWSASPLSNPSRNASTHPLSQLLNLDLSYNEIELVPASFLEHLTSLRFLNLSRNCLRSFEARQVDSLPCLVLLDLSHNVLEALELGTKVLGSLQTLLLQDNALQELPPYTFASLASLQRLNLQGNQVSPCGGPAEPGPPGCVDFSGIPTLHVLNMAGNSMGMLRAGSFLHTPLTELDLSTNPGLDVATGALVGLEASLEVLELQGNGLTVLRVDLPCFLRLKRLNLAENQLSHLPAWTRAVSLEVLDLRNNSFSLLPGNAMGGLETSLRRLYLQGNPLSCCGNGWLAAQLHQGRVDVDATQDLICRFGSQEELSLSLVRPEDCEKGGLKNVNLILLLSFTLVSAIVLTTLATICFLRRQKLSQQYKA
T7 sequence (P04202 30-390, chain 2 of 2, further chain): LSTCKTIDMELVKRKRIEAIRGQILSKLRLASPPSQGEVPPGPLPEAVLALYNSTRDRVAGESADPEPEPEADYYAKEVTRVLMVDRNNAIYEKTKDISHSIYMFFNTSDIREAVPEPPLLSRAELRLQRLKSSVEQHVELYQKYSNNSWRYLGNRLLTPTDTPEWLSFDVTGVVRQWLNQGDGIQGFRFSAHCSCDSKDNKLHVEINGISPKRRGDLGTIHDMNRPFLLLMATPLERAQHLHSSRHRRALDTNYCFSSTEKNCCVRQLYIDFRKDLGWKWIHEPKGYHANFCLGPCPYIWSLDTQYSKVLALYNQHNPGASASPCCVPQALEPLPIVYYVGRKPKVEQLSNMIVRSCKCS
T3 sequence (Q14766 347-1721 limits assumed, chain 1 of 2): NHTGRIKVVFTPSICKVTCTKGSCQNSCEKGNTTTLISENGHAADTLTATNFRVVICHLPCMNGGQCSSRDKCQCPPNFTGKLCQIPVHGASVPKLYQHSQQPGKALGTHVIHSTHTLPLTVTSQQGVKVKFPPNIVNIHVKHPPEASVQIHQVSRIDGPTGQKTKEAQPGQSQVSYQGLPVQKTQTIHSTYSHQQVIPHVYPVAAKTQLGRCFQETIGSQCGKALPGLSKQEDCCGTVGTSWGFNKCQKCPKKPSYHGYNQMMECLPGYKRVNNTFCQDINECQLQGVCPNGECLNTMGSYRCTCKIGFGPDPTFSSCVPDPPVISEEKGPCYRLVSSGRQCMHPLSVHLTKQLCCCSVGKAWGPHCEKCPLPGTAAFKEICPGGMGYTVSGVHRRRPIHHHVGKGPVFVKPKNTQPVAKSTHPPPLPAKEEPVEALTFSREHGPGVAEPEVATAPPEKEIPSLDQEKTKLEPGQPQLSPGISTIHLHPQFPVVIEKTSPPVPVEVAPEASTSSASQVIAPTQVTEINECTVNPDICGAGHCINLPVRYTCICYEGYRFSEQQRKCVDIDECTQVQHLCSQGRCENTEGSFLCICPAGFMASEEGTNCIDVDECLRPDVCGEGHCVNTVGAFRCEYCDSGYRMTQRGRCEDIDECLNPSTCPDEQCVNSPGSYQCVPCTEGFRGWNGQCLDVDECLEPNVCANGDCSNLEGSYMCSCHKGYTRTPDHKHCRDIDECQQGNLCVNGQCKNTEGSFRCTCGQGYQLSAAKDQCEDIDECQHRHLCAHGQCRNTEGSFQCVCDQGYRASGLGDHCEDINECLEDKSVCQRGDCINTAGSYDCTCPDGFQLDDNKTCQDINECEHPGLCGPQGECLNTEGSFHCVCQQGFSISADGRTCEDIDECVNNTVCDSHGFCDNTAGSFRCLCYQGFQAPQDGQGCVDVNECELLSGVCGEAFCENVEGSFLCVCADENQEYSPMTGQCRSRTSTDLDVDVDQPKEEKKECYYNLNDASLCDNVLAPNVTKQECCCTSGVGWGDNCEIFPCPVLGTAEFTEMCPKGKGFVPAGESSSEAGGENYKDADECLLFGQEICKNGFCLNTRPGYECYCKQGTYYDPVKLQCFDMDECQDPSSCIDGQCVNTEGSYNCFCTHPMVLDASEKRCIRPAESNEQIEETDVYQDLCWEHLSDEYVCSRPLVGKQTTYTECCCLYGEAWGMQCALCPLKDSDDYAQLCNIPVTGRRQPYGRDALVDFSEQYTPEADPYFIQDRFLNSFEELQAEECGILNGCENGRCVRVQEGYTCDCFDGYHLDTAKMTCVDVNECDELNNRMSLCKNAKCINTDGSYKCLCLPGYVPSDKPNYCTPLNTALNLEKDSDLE
T3 sequence (P01137 30-390 limits assumed, chain 2 of 2): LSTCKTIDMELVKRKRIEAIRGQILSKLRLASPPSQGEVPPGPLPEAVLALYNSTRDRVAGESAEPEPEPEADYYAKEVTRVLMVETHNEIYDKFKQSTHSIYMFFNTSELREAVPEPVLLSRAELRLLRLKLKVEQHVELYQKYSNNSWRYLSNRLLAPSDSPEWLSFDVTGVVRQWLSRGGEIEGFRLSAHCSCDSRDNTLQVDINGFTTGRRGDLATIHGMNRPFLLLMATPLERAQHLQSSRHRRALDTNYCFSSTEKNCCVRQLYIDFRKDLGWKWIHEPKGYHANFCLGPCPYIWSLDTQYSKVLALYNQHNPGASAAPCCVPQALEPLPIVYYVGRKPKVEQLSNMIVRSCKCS
T4 sequence (Q61810 39-1253, chain 1 of 2): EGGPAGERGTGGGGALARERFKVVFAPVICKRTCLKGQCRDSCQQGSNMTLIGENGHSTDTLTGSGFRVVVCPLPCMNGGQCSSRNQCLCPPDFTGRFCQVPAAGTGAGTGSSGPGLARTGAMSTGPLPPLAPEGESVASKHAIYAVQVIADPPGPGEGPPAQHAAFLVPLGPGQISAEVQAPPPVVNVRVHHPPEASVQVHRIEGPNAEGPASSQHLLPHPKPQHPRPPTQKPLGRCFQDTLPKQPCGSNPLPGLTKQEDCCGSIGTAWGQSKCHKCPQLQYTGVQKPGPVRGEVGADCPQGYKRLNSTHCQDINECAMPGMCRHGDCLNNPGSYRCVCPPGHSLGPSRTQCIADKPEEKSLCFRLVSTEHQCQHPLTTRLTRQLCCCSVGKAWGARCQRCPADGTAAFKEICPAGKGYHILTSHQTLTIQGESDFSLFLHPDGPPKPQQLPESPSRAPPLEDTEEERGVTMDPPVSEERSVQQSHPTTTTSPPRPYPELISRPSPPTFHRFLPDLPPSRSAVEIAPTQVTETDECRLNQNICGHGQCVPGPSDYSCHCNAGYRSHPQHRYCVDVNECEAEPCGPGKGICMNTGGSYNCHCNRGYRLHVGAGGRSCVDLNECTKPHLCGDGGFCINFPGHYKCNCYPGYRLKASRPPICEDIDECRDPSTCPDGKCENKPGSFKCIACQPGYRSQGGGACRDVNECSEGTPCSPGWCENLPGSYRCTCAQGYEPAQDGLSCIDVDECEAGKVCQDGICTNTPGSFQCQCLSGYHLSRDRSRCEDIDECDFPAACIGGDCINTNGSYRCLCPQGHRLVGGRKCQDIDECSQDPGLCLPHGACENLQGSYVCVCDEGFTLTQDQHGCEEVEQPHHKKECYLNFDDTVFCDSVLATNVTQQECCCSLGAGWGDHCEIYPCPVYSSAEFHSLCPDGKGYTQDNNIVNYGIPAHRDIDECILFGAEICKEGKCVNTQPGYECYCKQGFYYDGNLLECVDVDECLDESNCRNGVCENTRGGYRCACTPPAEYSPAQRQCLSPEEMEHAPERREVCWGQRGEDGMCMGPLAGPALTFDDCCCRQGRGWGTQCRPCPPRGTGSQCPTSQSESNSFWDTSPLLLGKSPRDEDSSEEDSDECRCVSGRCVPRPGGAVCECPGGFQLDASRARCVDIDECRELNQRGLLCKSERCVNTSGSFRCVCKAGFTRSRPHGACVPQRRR
T4 sequence (P04202 30-390, chain 2 of 2, further chain): as the sequence (P04202 30-390, chain 2 of 2, further chain) above
T6 sequence (Q14392 18-627 limits assumed, chain 1 of 2): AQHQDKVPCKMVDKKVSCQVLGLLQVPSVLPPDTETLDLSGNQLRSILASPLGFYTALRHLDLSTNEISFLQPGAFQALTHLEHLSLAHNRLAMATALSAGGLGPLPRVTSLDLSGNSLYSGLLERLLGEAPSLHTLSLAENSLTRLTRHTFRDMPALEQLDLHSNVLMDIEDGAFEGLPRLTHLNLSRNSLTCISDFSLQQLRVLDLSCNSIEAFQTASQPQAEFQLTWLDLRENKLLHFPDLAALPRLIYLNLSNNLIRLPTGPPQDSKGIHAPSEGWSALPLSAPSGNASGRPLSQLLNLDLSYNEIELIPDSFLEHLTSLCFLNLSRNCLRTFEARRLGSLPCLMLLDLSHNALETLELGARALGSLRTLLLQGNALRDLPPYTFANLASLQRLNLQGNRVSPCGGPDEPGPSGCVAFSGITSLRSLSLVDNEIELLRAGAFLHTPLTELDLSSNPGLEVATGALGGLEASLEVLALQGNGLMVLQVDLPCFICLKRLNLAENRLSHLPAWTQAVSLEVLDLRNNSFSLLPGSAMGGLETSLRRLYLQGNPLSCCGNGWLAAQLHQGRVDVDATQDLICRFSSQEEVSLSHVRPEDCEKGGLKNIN
T6 sequence (P01137 30-390 limits assumed, chain 2 of 2): as the sequence (P01137 30-390 limits assumed, chain 2 of 2) above

B1: Ab46 Fab (Fab, V domains shown)
VH: EVQLLESGGGLVQPGGSLRLSCAASGFTFADYAMTWVRQAPGKGLEWVSAISGSGAATYFADSVKGRFTISRDNSKNTLYLQMNSLRAEDTAVYYCARVSSGHWDYDYWGQGTLVTVSS
VL: DIQLTQSPSSLSASVGDRVTITCRASQSISSYLNWYQQKPGKAPKLLIYAASGLESGVPSRFSGSGSGTDFTLTISSLQPEDFATYYCQQTYGVPLTFGGGTKVEIK
notes: Fab fragment
A word on the Kd: it is the constant that tells how readily two partners part at equilibrium. In general, koff refers to the first-order rate constant of dissociation. A higher koff goes with a short-lived complex. One may read the kon as a measure of how fast the partners come together. A lower kon goes with slow association. Turning to B1, the dissociation constant Kd with mLRRC33-proTGFβ1 [1] is 0.0892 nM; with hLTBP3-proTGFβ1, 0.127 nM; with hLTBP1-proTGFβ1, 0.0502 nM; with mLTBP3-proTGFβ1, 0.0956 nM; in the assay with mLTBP1-proTGFβ1, 0.0534 nM; in the assay with hGARP-proTGFβ1, 0.23 nM. Further, the affinity with mGARP-proTGFβ1 [2], expressed as Kd, was 0.274 nM. Besides, the koff with mLRRC33-proTGFβ1 [1] was determined as 0.000112 s⁻¹; with hLTBP3-proTGFβ1, 0.000128 s⁻¹; in the assay with hLTBP1-proTGFβ1, 8.81e-05 s⁻¹; with mLTBP3-proTGFβ1 it was 0.000115 s⁻¹; with mLTBP1-proTGFβ1 it was 9.87e-05 s⁻¹; with hGARP-proTGFβ1, 0.000222 s⁻¹. In the assay with mGARP-proTGFβ1 [2], this molecule yielded an off-rate constant (koff) of 0.000278 s⁻¹. Also, the kon with mLRRC33-proTGFβ1 [1] was 1.26e+06 M⁻¹ s⁻¹; in the assay with hLTBP3-proTGFβ1 it was 1e+06 M⁻¹ s⁻¹; in the assay with hLTBP1-proTGFβ1, 1.75e+06 M⁻¹ s⁻¹; in the assay with mLTBP3-proTGFβ1, 1.2e+06 M⁻¹ s⁻¹; with mLTBP1-proTGFβ1, 1.85e+06 M⁻¹ s⁻¹; with hGARP-proTGFβ1, 965000 M⁻¹ s⁻¹. Also, in the assay with mGARP-proTGFβ1 [2], the on-rate (kon) was found to be 1.02e+06 M⁻¹ s⁻¹. Moreover, the Fold difference with mLRRC33-proTGFβ1 [3] was 95 fold; in the assay with hLRRC33-proTGFβ1, 118 fold; in the assay with mGARP-proTGFβ1 [4], 69 fold.
